Measurements from patent US20050042205A1 (Genentech, Inc., published 2005).

Biological target: rat luteal LH/CG receptor (LH/CG-R) expressed from the cloned cDNA (expression vector pCLHR) in transiently … (rat, UniProt P16235)
Assay: 125I-CG binding to intact 293 cells transfected with the LH/CG receptor cDNA

B1: human choriogonadotropin, highly purified (CR-123; 12,780 IU/mg) (ligand)
chain 1: not shown
chain 2: SKEPLRPRCRPINATLAVEKEGCPVCITVNTTICAGYCPTMTRVLQGVLPALPQVVCNYRDVRFESIRLPGCPRGVNPVVSYAVALSCQCALCRRSTTDCGGPKDHPLTCDDPRFQDSSSSKAPPPSLPSPSRLPGPSDTPILPQ
Binder B1 has a Kd of 80 to 160 pM.
